According to paper PMC8765631:

Tests used:
[1] = target: VgrG1 from Pseudomonas protegens (Pseudomonas protegens Pf-5); experiment: cryo-EM structure
[2] = target: RhsA_(ΔTMD) (RhsA lacking its N-terminal prePAAR motif and TMD, residues 74-1486) (Pseudomonas protegens Pf-5); experiment: cryo-EM structure; purified RhsA_(ΔTMD) at 4 mg/ml in 20 mM Tris-HCl pH 8.0, 150 mM NaCl; single particle analysis with C2 symmetry, 3.3 Å

## VgrG1 from Pseudomonas protegens (natural protein)
[1]
  stoichiometry N: 3

## RhsA_(ΔTMD) (RhsA lacking its N-terminal prePAAR motif and TMD, residues 74-1486) (domain or fragment)
[2]
  stoichiometry N: 2
